Test results: patent US10738094B2, “Peptides and combination of peptides for use in immunotherapy against ovarian cancer and other cancers” (immatics biotechnologies GmbH, priority 2015, dated 2020)

Target: HLA-A*02:01 (Homo sapiens, UniProt P04439, D140Y/D185E/D98H/E176V/E277Q/G131W/G231S/I119V/I121R/I166T/I218V/L300P/L318F/N151K/N90K/P208A/P217A/Q86G/Q94H/R138H/R169H/T345S)
Experiment: MHC binding assay (UV-ligand exchange, beta2m ELISA)
Conditions: binding to HLA-A*02:01 ranged by peptide exchange yield (UV-ligand exchange, β2m ELISA)
Summary of the method: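 UV-cleavable ligand in peptide-MHC complexes was exchanged for test peptide. Exchange yield came from an ELISA on streptavidin-captured complexes diluted 100 fold, detecting β2m with HRP anti-β2m (2 ug/ml, 1 h, 37° C.), TMB, A450.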

169 (NLPEYLPFV; listed as Homo sapiens) [compound 169]
Peptide exchange: “+++” (≥50 = +++)

510 (KLYSVVSQL; listed as Homo sapiens) [compound 510]
Peptide exchange: “++” (≥20% = ++)

161 (ALLEGVNTV; listed as Homo sapiens) [compound 161]
Peptide exchange: “+++” (≥50 = +++)

376 (AMFESSQNVLL; listed as Homo sapiens) [compound 376]
Peptide exchange: “++” (≥20% = ++)

202 (ALLDQQGSRWTL; listed as Homo sapiens) [compound 202]
Peptide exchange: “+++” (≥50 = +++)

261 (YVLEFLEEI; listed as Homo sapiens) [compound 261]
Peptide exchange: “++” (≥20% = ++)

145 (FLATSGTLAGI; listed as Homo sapiens) [compound 145]
Peptide exchange: “++” (≥20% = ++)

467 (FLAKDFNFL; listed as Homo sapiens) [compound 467]
Peptide exchange: “+++” (≥50 = +++)

582 (TLCDVILMV; listed as Homo sapiens) [compound 582]
Peptide exchange: “+++” (≥50 = +++)

92 (YLIPFTGIVGL; listed as Homo sapiens) [compound 92]
Peptide exchange: “++” (≥20% = ++)

127 (KIGDEPPKV; listed as Homo sapiens) [compound 127]
Peptide exchange: “++” (≥20% = ++)

103 (TLAEEVVAL; listed as Homo sapiens) [compound 103]
Peptide exchange: “+++” (≥50 = +++)

552 (GLLDLPFRVGV; listed as Homo sapiens) [compound 552]
Peptide exchange: “++++” (≥75% = ++++)

219 (KLSDIGITV; listed as Homo sapiens) [compound 219]
Peptide exchange: “+++” (≥50 = +++)

17 (GLLPGDRLVSV; listed as Homo sapiens) [compound 17]
Peptide exchange: “+++” (≥50 = +++)

186 (TLFFQQNAL; listed as Homo sapiens) [compound 186]
Peptide exchange: “++” (≥20% = ++)

57 (TLAELQPPVQL; listed as Homo sapiens) [compound 57]
Peptide exchange: “+++” (≥50 = +++)

479 (SLFGNSGILENV; listed as Homo sapiens) [compound 479]
Peptide exchange: “+++” (≥50 = +++)

388 (SLTIDGIRYV; listed as Homo sapiens) [compound 388]
Peptide exchange: “+++” (≥50 = +++)

464 (ALNDCIYSV; listed as Homo sapiens) [compound 464]
Peptide exchange: “+++” (≥50 = +++)

321 (GLFEDVTQPGILL; listed as Homo sapiens) [compound 321]
Peptide exchange: “++++” (≥75% = ++++)

146 (SLATAGDGLIEL; listed as Homo sapiens) [compound 146]
Peptide exchange: “++” (≥20% = ++)

63 (YLLPSGGSVTL; listed as Homo sapiens) [compound 63]
Peptide exchange: “++” (≥20% = ++)

159 (GLVGNPLPSV; listed as Homo sapiens) [compound 159]
Peptide exchange: “++++” (≥75% = ++++)

142 (FLFATPVFI; listed as Homo sapiens) [compound 142]
Peptide exchange: “+++” (≥50 = +++)

538 (LLLAHIIAL; listed as Homo sapiens) [compound 538]
Peptide exchange: “++” (≥20% = ++)

409 (LLDAMNYHL; listed as Homo sapiens) [compound 409]
Peptide exchange: “++” (≥20% = ++)

484 (SLIEKVTQL; listed as Homo sapiens) [compound 484]
Peptide exchange: “+++” (≥50 = +++)

512 (SLSEIVPCL; listed as Homo sapiens) [compound 512]
Peptide exchange: “+++” (≥50 = +++)

594 (IMLKGDNITL; listed as Homo sapiens) [compound 594]
Peptide exchange: “+++” (≥50 = +++)

557 (KLYDDMIRL; listed as Homo sapiens) [compound 557]
Peptide exchange: “+++” (≥50 = +++)

565 (ALQETPTSV; listed as Homo sapiens) [compound 565]
Peptide exchange: “++” (≥20% = ++)

336 (ILLTAIVQV; listed as Homo sapiens) [compound 336]
Peptide exchange: “+++” (≥50 = +++)

477 (ALLPASGQIAL; listed as Homo sapiens) [compound 477]
Peptide exchange: “+++” (≥50 = +++)

212 (ALWDQDNLSV; listed as Homo sapiens) [compound 212]
Peptide exchange: “++” (≥20% = ++)

436 (HLAEVSAEV; listed as Homo sapiens) [compound 436]
Peptide exchange: “+++” (≥50 = +++)

73 (NIFDLQIYV; listed as Homo sapiens) [compound 73]
Peptide exchange: “+++” (≥50 = +++)

311 (RLYTGMHTV; listed as Homo sapiens) [compound 311]
Peptide exchange: “+++” (≥50 = +++)

586 (KLKPGDLVGV; listed as Homo sapiens) [compound 586]
Peptide exchange: “+++” (≥50 = +++)

30 (LILDWVPYI; listed as Homo sapiens) [compound 30]
Peptide exchange: “+++” (≥50 = +++)

530 (VMYADIGGMDI; listed as Homo sapiens) [compound 530]
Peptide exchange: “+++” (≥50 = +++)

46 (ILTEENIHL; listed as Homo sapiens) [compound 46]
Peptide exchange: “+++” (≥50 = +++)

507 (KLIDDQDISISL; listed as Homo sapiens) [compound 507]
Peptide exchange: “+++” (≥50 = +++)

300 (ALLGQTFSL; listed as Homo sapiens) [compound 300]
Peptide exchange: “+++” (≥50 = +++)

54 (SLLEQGKEPWMV; listed as Homo sapiens) [compound 54]
Peptide exchange: “+++” (≥50 = +++)

341 (SQIALNEKLVNL; listed as Homo sapiens) [compound 341]
Peptide exchange: “+++” (≥50 = +++)

236 (GLLEAKVSL; listed as Homo sapiens) [compound 236]
Peptide exchange: “+++” (≥50 = +++)

318 (GLINTGVLSV; listed as Homo sapiens) [compound 318]
Peptide exchange: “++” (≥20% = ++)

458 (SLIDKLYNI; listed as Homo sapiens) [compound 458]
Peptide exchange: “++” (≥20% = ++)

577 (VMFEDGVLMRL; listed as Homo sapiens) [compound 577]
Peptide exchange: “+++” (≥50 = +++)

514 (ILVDWLVQV; listed as Homo sapiens) [compound 514]
Peptide exchange: “+++” (≥50 = +++)

23 (VLLDDIFAQL; listed as Homo sapiens) [compound 23]
Peptide exchange: “+++” (≥50 = +++)

313 (VLFDDELLMV; listed as Homo sapiens) [compound 313]
Peptide exchange: “+++” (≥50 = +++)

617 (ALMYESEKVGV; listed as Homo sapiens) [compound 617]
Peptide exchange: “+++” (≥50 = +++)

576 (ILLNNSGQIKL; listed as Homo sapiens) [compound 576]
Peptide exchange: “++++” (≥75% = ++++)

110 (FLSQVDFEL; listed as Homo sapiens) [compound 110]
Peptide exchange: “+++” (≥50 = +++)

492 (SLFDGFADGLGV; listed as Homo sapiens) [compound 492]
Peptide exchange: “+++” (≥50 = +++)

392 (ALLHPQGFEV; listed as Homo sapiens) [compound 392]
Peptide exchange: “++” (≥20% = ++)

348 (ILLDVKTRL; listed as Homo sapiens) [compound 348]
Peptide exchange: “++++” (≥75% = ++++)

147 (SLLEAVSFL; listed as Homo sapiens) [compound 147]
Peptide exchange: “+++” (≥50 = +++)

139 (SVMEVNSGIYRV; listed as Homo sapiens) [compound 139]
Peptide exchange: “+++” (≥50 = +++)

239 (AAFAGKLLSV; listed as Homo sapiens) [compound 239]
Peptide exchange: “+++” (≥50 = +++)

91 (IMQDFPAEIFL; listed as Homo sapiens) [compound 91]
Peptide exchange: “++++” (≥75% = ++++)

100 (YLLSTNAQL; listed as Homo sapiens) [compound 100]
Peptide exchange: “++++” (≥75% = ++++)

240 (ILLEQAFYL; listed as Homo sapiens) [compound 240]
Peptide exchange: “+++” (≥50 = +++)

297 (VLADIELAQA; listed as Homo sapiens) [compound 297]
Peptide exchange: “+++” (≥50 = +++)

334 (TLTKVLVAL; listed as Homo sapiens) [compound 334]
Peptide exchange: “+++” (≥50 = +++)

601 (SAFPFPVTV; listed as Homo sapiens) [compound 601]
Peptide exchange: “+++” (≥50 = +++)

591 (SMAELDIKL; listed as Homo sapiens) [compound 591]
Peptide exchange: “+++” (≥50 = +++)

49 (YLPAVFEEV; listed as Homo sapiens) [compound 49]
Peptide exchange: “+++” (≥50 = +++)

447 (QLVPALAKV; listed as Homo sapiens) [compound 447]
Peptide exchange: “++” (≥20% = ++)

28 (QLLDETSAITL; listed as Homo sapiens) [compound 28]
Peptide exchange: “+++” (≥50 = +++)

234 (ALMEDTGRQML; listed as Homo sapiens) [compound 234]
Peptide exchange: “++” (≥20% = ++)

124 (ALYETELADA; listed as Homo sapiens) [compound 124]
Peptide exchange: “++” (≥20% = ++)

615 (VLPPDTDPA; listed as Homo sapiens) [compound 615]
Peptide exchange: “++” (≥20% = ++)

444 (GLLRDEALAEV; listed as Homo sapiens) [compound 444]
Peptide exchange: “+++” (≥50 = +++)

235 (YLNDLHEVLL; listed as Homo sapiens) [compound 235]
Peptide exchange: “++++” (≥75% = ++++)

381 (FIDEAYVEV; listed as Homo sapiens) [compound 381]
Peptide exchange: “++” (≥20% = ++)
